Measurements from patent US20100297093A1.
Where two headings read alike, the source gives them in different places.

Key:
[1] = molecular target: MART-1 peptide on HLA-A*02:01 (human); test: peptide titration, transfected CD4+ T cells, peptide-pulsed target cells; upper bound 100 fold; minimal effect in CD8+ T cells; full-length, on cells
[2] = molecular target: MART-1:27-35 peptide presented by HLA-A2 on target cells (UniProt Q16655); test: cell-based or functional assay
[3] = molecular target: MART-1:27-35 peptide presented by HLA-A2 on target cells (UniProt Q16655); test: cell-based or functional assay; remark: listed apart in the source

## DMF4 β51:A
[1]
  fold lower peptide concentration recognised than with the WT TCR: > 10 fold

## DMF4 TCR, WT α + β51:A (G51A)
[2]
  IFN-γ; CD4+ T; 624.38: 15800 pg/mL
  IFN-γ; CD4+ T; 1300: 11200 pg/mL
  IFN-γ; CD8+ T; 624.38: 32800 pg/mL
  IFN-γ; CD8+ T; 1300: 78000 pg/mL
  peptide titration; CD4+ T; fold lower MART-1:27-35 concentration recognized vs WT DMF4: 10 to 100 fold

## DMF4 anti-MART-1 TCR, wild type α and β chains
[2]
  IFN-γ; CD4+ T; 624.38: 3220 pg/mL
  IFN-γ; CD4+ T; 1300: 3480 pg/mL
  IFN-γ; CD8+ T; 624.38: 47700 pg/mL
  IFN-γ; CD8+ T; 1300: 32800 pg/mL

B1: DMF4 TCR, αLA (T93L/G94A) + WT β (TCR, part only; not given: wild type beta chain, part only)
TCR alpha: GQQLNQSPQSMFIQEGEDVSMNCTSSSIFNTWLWYKQDPGEGPVLLIALYKAGELTSNGRLTAQFGITRKDSFLNISASIPSDVGIYFCAGGLANQFYFGTGTSLTVIPNIQNPDPAVYQLRDSKSSDKSVCLFTDFDSQTNVSQSKDSDVYITDKTVLDMRSMDFKSNSAVAWSNKSDFACANAFNNSIIPEDTFFPSPESSCDVKLVEKSFETDTNLNFQNLSVIGFRILLLKVAGFNLLMTLRLWSS
[3]
  IFN-γ; CD4+ T; 624.38: 20400 pg/mL
  IFN-γ; CD4+ T; 1300: 11100 pg/mL
  IFN-γ; CD8+ T; 624.38: 36400 pg/mL
  IFN-γ; CD8+ T; 1300: 91800 pg/mL
